# Reference: paper PMC9599535
# Assays:
# [1] = biological target: recombinant purified multimeric HIV-1 CA tubes assembled from cross-linked CA hexamers (CA A14C/E45C) (HIV-1 (NL4-3))
# [2] = biological target: recombinant purified multimeric HIV-1 CA tubes assembled from cross-linked CA hexamers (CA A14C/E45C) (HIV-1 (NL4-3)); assay: co-sedimentation; 20 μL CA tubes (~1.4 μM) mixed with 80 μL clarified HEK293T whole-cell lysate (1.5 mg/mL) in CA binding buffer (10 mM Tris pH 7.4, 1.5 mM MgCl2, 10 mM KCl), 1 h at room temperature; 21,000 x g for 8 min at 4°C; NUP153C detected with anti-HA, signals normalized to input
# [3] = biological target: recombinant purified multimeric HIV-1 CA tubes assembled from cross-linked CA hexamers (CA A14C/E45C) (HIV-1 (NL4-3)); assay: cross-linking; disulfide cross-linking of purified CA A14C/E45C by dialysis in assembly buffer (25 mM Tris-Cl pH 8.0, 1 M NaCl) with falling β-ME at 4°C; hexamers assessed by SDS-PAGE, tubes by transmission electron microscopy
Substance,"HIV-GFP transduction of HEK293T cells expressing TRIM-NUP153C, relative percentage of GFP-positive cells [1]",other results
"TRIM-NUP153C(human)-HA, wild type (from UniProt Q0PF16 1-304; P49790 896-1475)",–,"HIV-GFP transduction of HEK293T cells expressing TRIM-NUP153C, GFP-positive cells relative to the no TRIM control (flow cytometry) [1]: 53%; percent detected in the pellet fraction with CA tubes [2]: 46%"
TRIM-NUP153C-HA F1415M (from UniProt Q0PF16 1-304; P49790 896-1475),52%,–
TRIM-NUP153C-HA F1417Y (from UniProt Q0PF16 1-304; P49790 896-1475),77.9%,–
TRIM-NUP153C-HA G1413M (from UniProt Q0PF16 1-304; P49790 896-1475),61.7%,–
TRIM-NUP153C-HA G1413W (from UniProt Q0PF16 1-304; P49790 896-1475),–,percent bound to CA tubes (cosedimented) [2]: 59%
TRIM-NUP153C-HA G1418A (from UniProt Q0PF16 1-304; P49790 896-1475),79%,–
TRIM-NUP153C-HA P1411M (from UniProt Q0PF16 1-304; P49790 896-1475),–,"HIV-GFP transduction of HEK293T cells expressing TRIM-NUP153C, relative percentage of GFP-positive cells; restriction significantly different from wild type [1]: 67.9%"
TRIM-NUP153C-HA S1412M (from UniProt Q0PF16 1-304; P49790 896-1475),64.1%,–
TRIM-NUP153C-HA S1412P (from UniProt Q0PF16 1-304; P49790 896-1475),–,percent bound to CA tubes (cosedimented) [2]: 63%
TRIM-NUP153C-HA T1416M (from UniProt Q0PF16 1-304; P49790 896-1475),86.8%,–
TRIM-NUP153C-HA V1414I (from UniProt Q0PF16 1-304; P49790 896-1475),63.9%,–
recombinant purified multimeric HIV-1 CA tubes assembled from cross-linked CA hexamers (CA A14C/E45C) (natural protein),–,stoichiometry N [3]: 6
